Data on two substances can be found in US20030135878.

This data set deals with wheat thioredoxin h (WTRXh), 13.5-kDa protein encoded by the 384-bp wtrxh fragment (UniProt O64394).
Sequence of wheat thioredoxin h (WTRXh), 13.5-kDa protein encoded by the 384-bp wtrxh fragment (O64394 whole entry, the tested form may be a part): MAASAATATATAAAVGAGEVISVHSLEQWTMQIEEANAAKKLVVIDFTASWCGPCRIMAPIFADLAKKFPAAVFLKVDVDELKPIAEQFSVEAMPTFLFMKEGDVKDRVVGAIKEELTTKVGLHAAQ

On to barley NTR (NADP-thioredoxin reductase), for which the “reduction of DTNB [5,5'-dithiobis(2-nitrobenzoic acid)] via NTR and thioredoxin” value is listed as “confirmed the ability of barley NTR to reduce wheat thioredoxin h (data not shown)”.
In turn, “Arabidopsis thaliana NTR (NADP-thioredoxin reductase)” displayed a Relative reduction of albumin-fraction proteins (mBBr fluorescence/protein), Homozygous/Null Segregant, +NADPH/NTR (fold (Homozygous/Null Segregant)) of 3.91.
